# Results as given in paper PMC8266045, “MT1-MMP-dependent ECM processing regulates laminB1 stability and mediates replication fork restart” (PLoS ONE, 2021).
# B1: Focal Adhesion Kinase (natural protein, human (endogenous in MDA-MB-231), UniProt Q05397 1-1052, looked up)
# chain: MAAAYLDPNLNHTPNSSTKTHLGTGMERSPGAMERVLKVFHYFESNSEPTTWASIIRHGDATDVRGIIQKIVDSHKVKHVACYGFRLSHLRSEEVHWLHVDMGVSSVREKYELAHPPEEWKYELRIRYLPKGFLNQFTEDKPTLNFFYQQVKSDYMLEIADQVDQEIALKLGCLEIRRSYWEMRGNALEKKSNYEVLEKDVGLKRFFPKSLLDSVKAKTLRKLIQQTFRQFANLNREESILKFFEILSPVYRFDKECFKCALGSSWIISVELAIGPEEGISYLTDKGCNPTHLADFTQVQTIQYSNSEDKDRKGMLQLKIAGAPEPLTVTAPSLTIAENMADLIDGYCRLVNGTSQSFIIRPQKEGERALPSIPKLANSEKQGMRTHAVSVSETDDYAEIIDEEDTYTMPSTRDYEIQRERIELGRCIGEGQFGDVHQGIYMSPENPALAVAIKTCKNCTSDSVREKFLQEALTMRQFDHPHIVKLIGVITENPVWIIMELCTLGELRSFLQVRKYSLDLASLILYAYQLSTALAYLESKRFVHRDIAARNVLVSSNDCVKLGDFGLSRYMEDSTYYKASKGKLPIKWMAPESINFRRFTSASDVWMFGVCMWEILMHGVKPFQGVKNNDVIGRIENGERLPMPPNCPPTLYSLMTKCWAYDPSRRPRFTELKAQLSTILEEEKAQQEERMRMESRRQATVSWDSGGSDEAPPKPSRPGYPSPRSSEGFYPSPQHMVQTNHYQVSGYPGSHGITAMAGSIYPGQASLLDQTDSWNHRPQEIAMWQPNVEDSTVLDLRGIGQVLPTHLMEERLIRQQQEMEEDQRWLEKEERFLKPDVRLSRGSIDREDGSLQGPIGNQHIYQPVGKPDPAAPPKKPPRPGAPGHLGSLASLSSPADSYNEGVKLQPQEISPPPTANLDRSNDKVYENVTGLVKAVIEMSSKIQPAPPEEYVPMVKEVGLALRTLLATVDETIPLLPASTHREIEMAQKLLNSDLGELINKMKLAQQYVMTSLQQEYKKQMLTAAHALAVDAKNLLDVIDQARLKMLGQTRPH
# notes: Focal adhesion kinase (FAK), endogenous in human MDA-MB-231 breast cancer cells; Endogenous protein; also called FAK; source: endogenous, MDA-MB-231 lysate (RIPA buffer)
# B2: laminB1 (natural protein, human (endogenous in MDA-MB-231), UniProt P20700 1-586, looked up)
# chain: MATATPVPPRMGSRAGGPTTPLSPTRLSRLQEKEELRELNDRLAVYIDKVRSLETENSALQLQVTEREEVRGRELTGLKALYETELADARRALDDTARERAKLQIELGKCKAEHDQLLLNYAKKESDLNGAQIKLREYEAALNSKDAALATALGDKKSLEGDLEDLKDQIAQLEASLAAAKKQLADETLLKVDLENRCQSLTEDLEFRKSMYEEEINETRRKHETRLVEVDSGRQIEYEYKLAQALHEMREQHDAQVRLYKEELEQTYHAKLENARLSSEMNTSTVNSAREELMESRMRIESLSSQLSNLQKESRACLERIQELEDLLAKEKDNSRRMLTDKEREMAEIRDQMQQQLNDYEQLLDVKLALDMEISAYRKLLEGEEERLKLSPSPSSRVTVSRASSSRSVRTTRGKRKRVDVEESEASSSVSISHSASATGNVCIEEIDVDGKFIRLKNTSEQDQPMGGWEMIRKIGDTSVSYKYTSRYVLKAGQTVTIWAANAGVTASPPTDLIWKNQNSWGTGEDVKVILKNSQGEEVAQRSTVFKTTIPEEEEEEEEAAGVVVEEELFHQQGTPRASNRSCAIM
# notes: Lamin B1, nuclear envelope intermediate filament protein, endogenous in human MDA-MB-231 breast cancer cells; The introduction says that laminB1 is tethered to the membrane via a farnesyl group; nothing is said of the modification state in the co-IP; also called LMNB1; source: endogenous, MDA-MB-231 lysate (RIPA buffer)
# Legend:
# [1] = target: B2; assay: co-IP; MDA-MB-231 lysate in RIPA buffer (50mM Tris HCl pH 8, 150 mM NaCl, 1% NP-40, 0.5% sodium deoxycholate); immunoprecipitated overnight at 4°C with laminB1 antibody; immunoblot with anti FAK and anti laminB1; IgG as negative control; conditions: partners not purified
# [2] = target: B1; assay: co-IP; MDA-MB-231 lysate in RIPA buffer (50mM Tris HCl pH 8, 150 mM NaCl, 1% NP-40, 0.5% sodium deoxycholate); immunoprecipitated overnight at 4°C with FAK antibody; immunoblot with anti FAK and anti laminB1; IgG as negative control; conditions: partners not purified
binder,measurement,setting,value
B1,enrichment versus input,[1],6.4 ± 1.05 fold versus input
B2,enrichment versus input,[2],5.5 ± 0.4 fold versus input
